Results taken from article PMC10925246 (bioRxiv, 2024).
Like-named read-outs stand apart in the source and are kept apart here. Ends that are not written are not given here.

B1: Cys(N)-N-104 immobilized on SulfoLink Coupling resin (peptide)
peptide: AQKLLKKFSLLKPWA

What was measured:
[1] = target: T1, recombinant PotH (E. coli) with C-terminal 10-His tag (E. coli, UniProt P31135 1-317); test: pull-down
T1 sequence (looked up): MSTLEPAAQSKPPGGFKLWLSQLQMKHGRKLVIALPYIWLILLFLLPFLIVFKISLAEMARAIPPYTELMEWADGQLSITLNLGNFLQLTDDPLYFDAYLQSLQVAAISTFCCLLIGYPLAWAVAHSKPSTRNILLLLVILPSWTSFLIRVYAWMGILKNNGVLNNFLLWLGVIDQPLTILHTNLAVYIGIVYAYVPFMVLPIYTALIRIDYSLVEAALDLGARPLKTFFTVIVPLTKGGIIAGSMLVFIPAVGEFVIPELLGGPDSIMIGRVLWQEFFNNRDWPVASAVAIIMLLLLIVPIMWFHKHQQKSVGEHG

[2] = target: thrombin (F2) C-terminal peptide GKY20 (human); test: far-Western, overlay or dot blot
[3] = target: B1; test: pull-down
[4] = target: thrombin (F2) C-terminal peptide GKY20 (human); test: far-Western, overlay or dot blot; remark: listed apart in the source

| binding result [4] | also measured | Binder |
| --- | --- | --- |
|  | binding result [1]: binds | B1 |
|  | binding result [2]: binds | AQKSSKKSSSSKPSA (peptide, UniProt Q9GZZ8 124-138, looked up) [N-104 L108S/L109S/F112S/L114S/L115S/W118S] |
|  | binding result [3]: binds | Ac-WMGILKNNGVLNNFLLWLGVIDQPLTILHTN-NH2 [PotH outer loop 2 synthetic peptide] |
| binds |  | Ac-AQKLLKKFSLLKPWA [lacritin peptide N-104] |
| binds |  | AQKLLKKFSLLSPWA (peptide, UniProt Q9GZZ8 124-138, looked up) [N-104:K116S] |
| binds |  | AQKLLKKFSSLKPWA (peptide, UniProt Q9GZZ8 124-138, looked up) [N-104:L114S] |
| binds |  | AQKLLSKFSLLKPWA (peptide, UniProt Q9GZZ8 124-138, looked up) [N-104:K110S] |
| binds |  | AQSLLKKFSLLKPWA (peptide, UniProt Q9GZZ8 124-138, looked up) [N-104:K107S] |
| binds |  | AQKLSKKFSLLKPWA (peptide, UniProt Q9GZZ8 124-138, looked up) [N-104:L109S] |
| binds |  | AQKLLKKFSLLKPSA (peptide, UniProt Q9GZZ8 124-138, looked up) [N-104:W118S] |
| binds |  | AQKSLKKFSLLKPWA (peptide, UniProt Q9GZZ8 124-138, looked up) [N-104:L108S] |
| binds |  | AQKLLKKFSLSKPWA (peptide, UniProt Q9GZZ8 124-138, looked up) [N-104:L115S] |
| binds |  | AQKLLKKSSLLKPWA (peptide, UniProt Q9GZZ8 124-138, looked up) [N-104:F112S] |
| binds |  | AQKLLKSFSLLKPWA (peptide, UniProt Q9GZZ8 124-138, looked up) [N-104:K111S] |
